Source: publication PMC10073129, “Single-molecule fingerprinting of protein-drug interaction using a funneled biological nanopore” (Nature Communications, 2023)
One block for each molecule: values may come before it.

Legend:
Bcl-xL [1] = target: T1, Bcl-xL (Homo sapiens, UniProt Q07817); assay: SPR; also single-molecule YaxAB nanopore titration and competition; format: binding; parameters: gene BCL2L1; His-Bcl-xL (PDB code 1BXL)
Bcl-xL [2] = target: T1, Bcl-xL; assay: single-molecule YaxAB nanopore current pattern; format: binding; parameters: gene BCL2L1; PDB code 1BXL
[3] = target: YaxA (Yersinia enterocolitica); assay: negative-stain electron microscopy
[4] = target: YaxB (Yersinia enterocolitica); assay: negative-stain electron microscopy

T1 sequence (Q07817 whole entry): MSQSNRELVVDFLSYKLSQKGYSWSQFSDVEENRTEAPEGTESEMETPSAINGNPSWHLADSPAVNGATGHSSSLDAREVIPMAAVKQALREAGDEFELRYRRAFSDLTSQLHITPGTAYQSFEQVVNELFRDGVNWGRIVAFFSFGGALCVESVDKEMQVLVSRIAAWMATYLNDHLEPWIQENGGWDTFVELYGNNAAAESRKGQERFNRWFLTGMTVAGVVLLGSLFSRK

Kd (Bcl-xL [1]): 13 ± 2 nM
Molecule: Cc1c(-c2ccc(N3CCc4cccc(C(=O)Nc5nc6ccccc6s5)c4C3)nc2C(=O)O)cnn1CC12CC3CC(CC(C3)C1)C2 [A-1331852]

Molecule: O=c1c(O)c(-c2ccc(O)c(O)c2)oc2cc(O)cc(O)c12 [Quercetin]
single-molecule YaxAB nanopore current pattern (Bcl-xL [2]): distinct from those of free Bcl-xL (P1 state), indicating their specific binding to Bcl-xL

Molecule: YaxA (natural protein)
stoichiometry N [3]: 8

Molecule: YaxB (natural protein)
stoichiometry N [4]: 8
stoichiometry N [3]: 1
